Assay results reported in the supplement of paper PMC10567573.

B1: FAM98B (parent)
chain: QLDKNSEVYQEVQAMFDTLGIPKS
B2: MED27 (parent)
chain: YNENVYTEDGKLDIWSKSNYQVFQ

Variants of: B1
Experiment: protein stability index of a GFP-peptide fusion (GPS, HEK-293T) (PSI 1-6); higher = more stable
Conditions: c terminus: a fixed tail appended
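Also: lentivirally expressed fusions sorted by FACS into six bins by GFP to DsRed ratio, PSI derived from sequencing read proportions per bin multiplied by bin number.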

Variant	protein stability index
QADKNSEVYQEVQAMFDTLGIPKS [L2A]	4.38
QCDKNSEVYQEVQAMFDTLGIPKS [L2C]	4.07
QNDKNSEVYQEVQAMFDTLGIPKS [L2N]	4.36
QIDKNSEVYQEVQAMFDTLGIPKS [L2I]	3.08
QPDKNSEVYQEVQAMFDTLGIPKS [L2P]	4.66
QGDKNSEVYQEVQAMFDTLGIPKS [L2G]	4.76
QDDKNSEVYQEVQAMFDTLGIPKS [L2D]	4.67
QQDKNSEVYQEVQAMFDTLGIPKS [L2Q]	4.23
QFDKNSEVYQEVQAMFDTLGIPKS [L2F]	3.51
QEDKNSEVYQEVQAMFDTLGIPKS [L2E]	5.34
QHDKNSEVYQEVQAMFDTLGIPKS [L2H]	4.13
QKDKNSEVYQEVQAMFDTLGIPKS [L2K]	4.27
QMDKNSEVYQEVQAMFDTLGIPKS [L2M]	3.23
ILDKNSEVYQEVQAMFDTLGIPKS [Q1I]	3.23
MLDKNSEVYQEVQAMFDTLGIPKS [Q1M]	2.79
NLDKNSEVYQEVQAMFDTLGIPKS [Q1N]	3.39

Variant	protein stability index
WLDKNSEVYQEVQAMFDTLGIPKS [Q1W]	2.88
KLDKNSEVYQEVQAMFDTLGIPKS [Q1K]	3.2
HLDKNSEVYQEVQAMFDTLGIPKS [Q1H]	3.64
ALDKNSEVYQEVQAMFDTLGIPKS [Q1A]	2.91
DLDKNSEVYQEVQAMFDTLGIPKS [Q1D]	4.18
FLDKNSEVYQEVQAMFDTLGIPKS [Q1F]	2.2
LLDKNSEVYQEVQAMFDTLGIPKS [Q1L]	2.55
RLDKNSEVYQEVQAMFDTLGIPKS [Q1R]	3.39
PLDKNSEVYQEVQAMFDTLGIPKS [Q1P]	3.53
YLDKNSEVYQEVQAMFDTLGIPKS [Q1Y]	2.62
TLDKNSEVYQEVQAMFDTLGIPKS [Q1T]	3.18
GLDKNSEVYQEVQAMFDTLGIPKS [Q1G]	3.31
ELDKNSEVYQEVQAMFDTLGIPKS [Q1E]	2.9
VLDKNSEVYQEVQAMFDTLGIPKS [Q1V]	2.7
SLDKNSEVYQEVQAMFDTLGIPKS [Q1S]	2.96
CLDKNSEVYQEVQAMFDTLGIPKS [Q1C]	2.52

Variants of: B2
Experiment: as above
Conditions: c terminus: a fixed tail appended

Variant	protein stability index
YNHNVYTEDGKLDIWSKSNYQVFQ [E3H]	1.92
YNSNVYTEDGKLDIWSKSNYQVFQ [E3S]	1.76
YNFNVYTEDGKLDIWSKSNYQVFQ [E3F]	1.8
YNCNVYTEDGKLDIWSKSNYQVFQ [E3C]	2.04
YNMNVYTEDGKLDIWSKSNYQVFQ [E3M]	1.59
YNKNVYTEDGKLDIWSKSNYQVFQ [E3K]	2.31
YNRNVYTEDGKLDIWSKSNYQVFQ [E3R]	1.41
YNENVYTEDGVLDIWSKSNYQVFQ [K11V]	2.04
YNENVYTEDGMLDIWSKSNYQVFQ [K11M]	2.32
YNENVYTEDGCLDIWSKSNYQVFQ [K11C]	1.78
YNENVYTEDGSLDIWSKSNYQVFQ [K11S]	2.45
YNENVYTEDGDLDIWSKSNYQVFQ [K11D]	3.48
YNENVYTEDGYLDIWSKSNYQVFQ [K11Y]	1.94
YNENVYTEDGRLDIWSKSNYQVFQ [K11R]	1.96
YNENVYTEDGELDIWSKSNYQVFQ [K11E]	2.93
YNENVYTEDGFLDIWSKSNYQVFQ [K11F]	2.22
YNEQVYTEDGKLDIWSKSNYQVFQ [N4Q]	2.53
YNECVYTEDGKLDIWSKSNYQVFQ [N4C]	2.29
YNESVYTEDGKLDIWSKSNYQVFQ [N4S]	1.52
YNETVYTEDGKLDIWSKSNYQVFQ [N4T]	2.21
YNEIVYTEDGKLDIWSKSNYQVFQ [N4I]	2.04
YNEYVYTEDGKLDIWSKSNYQVFQ [N4Y]	1.47
YNEPVYTEDGKLDIWSKSNYQVFQ [N4P]	1.96

Variant	protein stability index
YNENVYTEDGKLDIWSKSNYGVFQ [Q21G]	1.59
YNENVYTEDGKLDIWSKSNYWVFQ [Q21W]	2.45
YNENVYTEDGKLDIWSKSNYNVFQ [Q21N]	2.04
YNENVYTEDGKLDIWSKSNYKVFQ [Q21K]	2.44
YNENVYTEDGKLDIWSKSNYAVFQ [Q21A]	2.46
YNENVYTEDGKLDIWSKSNYSVFQ [Q21S]	1.97
YNENVYTEDGKLDIWSKSNYVVFQ [Q21V]	1.82
YNENVYTEDGKLDIWSKSNYMVFQ [Q21M]	2.21
YNENVYTEDGKLDIWSKSNYQAFQ [V22A]	2.3
YNENVYTEDGKLDIWSKSNYQSFQ [V22S]	2.5
YNENVYTEDGKLDIWSKSNYQYFQ [V22Y]	2.42
YNENVYTEDGKLDIWSKSNYQHFQ [V22H]	2.27
YNENVYTEDGKLDIWSKSNYQCFQ [V22C]	2.56
YNENVYTEDGKLDIWSKSNYQKFQ [V22K]	2.4
YNENKYTEDGKLDIWSKSNYQVFQ [V5K]	2.15
YNENDYTEDGKLDIWSKSNYQVFQ [V5D]	3.26
YNENWYTEDGKLDIWSKSNYQVFQ [V5W]	1.91
YNENLYTEDGKLDIWSKSNYQVFQ [V5L]	2.21
YNENYYTEDGKLDIWSKSNYQVFQ [V5Y]	1.97
YNENAYTEDGKLDIWSKSNYQVFQ [V5A]	2.47
YNENVYTEDGKLDIWSMSNYQVFQ [K17M]	2.3
YNENVYTEDGKLDIWSCSNYQVFQ [K17C]	1.54
YNENVYTEDGKLDIWSVSNYQVFQ [K17V]	2.17

Variant	protein stability index
YNENVYTEDGKLDIWSLSNYQVFQ [K17L]	2.22
YNENVYTEDGKLDIWSNSNYQVFQ [K17N]	2.07
YNENVYTMDGKLDIWSKSNYQVFQ [E8M]	1.57
YNENVYTVDGKLDIWSKSNYQVFQ [E8V]	1.31
YNENVYTYDGKLDIWSKSNYQVFQ [E8Y]	1.97
YNENVYTADGKLDIWSKSNYQVFQ [E8A]	2.33
YNENVYTCDGKLDIWSKSNYQVFQ [E8C]	2.18
YNENVYTLDGKLDIWSKSNYQVFQ [E8L]	1.92
YNENVYTGDGKLDIWSKSNYQVFQ [E8G]	1.64
YNENVYTIDGKLDIWSKSNYQVFQ [E8I]	1.29
YNENVYTWDGKLDIWSKSNYQVFQ [E8W]	1.64
YNENVYWEDGKLDIWSKSNYQVFQ [T7W]	1.07
YNENVYLEDGKLDIWSKSNYQVFQ [T7L]	1.8
YNENVYEEDGKLDIWSKSNYQVFQ [T7E]	2.96
YNENVYFEDGKLDIWSKSNYQVFQ [T7F]	2.13
YNENVYHEDGKLDIWSKSNYQVFQ [T7H]	2.11
YNENVYAEDGKLDIWSKSNYQVFQ [T7A]	2.21
YNENVYREDGKLDIWSKSNYQVFQ [T7R]	2.06
YNENVYTEDGKLDIDSKSNYQVFQ [W15D]	4.42
YNENVYTEDGKLDIHSKSNYQVFQ [W15H]	3.85
YNENVYTEDGKLDILSKSNYQVFQ [W15L]	3.32
YNENVYTEDGKLDINSKSNYQVFQ [W15N]	4.08
YNENVYTEDGKLDIMSKSNYQVFQ [W15M]	3.3

Variant	protein stability index
YNENVTTEDGKLDIWSKSNYQVFQ [Y6T]	2.98
YNENVFTEDGKLDIWSKSNYQVFQ [Y6F]	2.55
YNENVMTEDGKLDIWSKSNYQVFQ [Y6M]	2.17
YNENVETEDGKLDIWSKSNYQVFQ [Y6E]	3.17
YNENVRTEDGKLDIWSKSNYQVFQ [Y6R]	2.48
YNENVNTEDGKLDIWSKSNYQVFQ [Y6N]	3
YNENVITEDGKLDIWSKSNYQVFQ [Y6I]	2.43
YNENVYTEDGKLDHWSKSNYQVFQ [I14H]	2.83
YNENVYTEDGKLDGWSKSNYQVFQ [I14G]	3.29
YNENVYTEDGKLDMWSKSNYQVFQ [I14M]	2.65
YNENVYTEDGKLDIWSKSNYQVNQ [F23N]	2.93
YNENVYTEDGKLDIWSKSNYQVVQ [F23V]	2.38
YNENVYTEDGKLDIWSKSNYQVSQ [F23S]	1.4
YNENVYTEDGKLDIWSKSNYQVLQ [F23L]	2.41
YNENVYTEDGKLDIWSKSNYQVTQ [F23T]	3
YNENVYTEDGKLDIWSKSNYQVCQ [F23C]	2.06
YNENVYTEDGKSDIWSKSNYQVFQ [L12S]	2.37
YNENVYTEDGKFDIWSKSNYQVFQ [L12F]	2.19
YNENVYTEDGKWDIWSKSNYQVFQ [L12W]	2.2
YNENVYTEDGKNDIWSKSNYQVFQ [L12N]	2.37
YNENVYTEDGKQDIWSKSNYQVFQ [L12Q]	3.1
YNENVYTEDGKVDIWSKSNYQVFQ [L12V]	2.58
YNENVYTEDGKGDIWSKSNYQVFQ [L12G]	2.63

Variant	protein stability index
YNENVYTEDGKKDIWSKSNYQVFQ [L12K]	2.33
YNENVYTEDGKLDIWSKQNYQVFQ [S18Q]	2.56
YNENVYTEDGKLDIWSKYNYQVFQ [S18Y]	2.26
YNENVYTEDGKLDIWSKCNYQVFQ [S18C]	1.86
YNENVYTEDGKLDIWSKTNYQVFQ [S18T]	2.62
YNENVYTEDGKLDIWSKPNYQVFQ [S18P]	2.13
YNENVYTEDGKLDIWSKKNYQVFQ [S18K]	1.97
YNENVYTEDGKLDIWSKENYQVFQ [S18E]	3.33
YNENVYTEDGKLDIWSKINYQVFQ [S18I]	1.96
YNENVYTEDGKLDIWSKGNYQVFQ [S18G]	1.91
YNENVYTEDGKLDIWPKSNYQVFQ [S16P]	2.05
YNENVYTEDGKLDIWYKSNYQVFQ [S16Y]	2.02
YNENVYTEDGKLDIWCKSNYQVFQ [S16C]	2.06
YNENVYTEDGKLDIWTKSNYQVFQ [S16T]	2.38
VNENVYTEDGKLDIWSKSNYQVFQ [Y1V]	3.67
MNENVYTEDGKLDIWSKSNYQVFQ [Y1M]	3.52
ANENVYTEDGKLDIWSKSNYQVFQ [Y1A]	2.86
LNENVYTEDGKLDIWSKSNYQVFQ [Y1L]	3.2
PNENVYTEDGKLDIWSKSNYQVFQ [Y1P]	3.52
YEENVYTEDGKLDIWSKSNYQVFQ [N2E]	3.95
YDENVYTEDGKLDIWSKSNYQVFQ [N2D]	3.6
YAENVYTEDGKLDIWSKSNYQVFQ [N2A]	2.53
YHENVYTEDGKLDIWSKSNYQVFQ [N2H]	1.75

Variant	protein stability index
YNENVYTEDGKLDIWSKSHYQVFQ [N19H]	2.19
YNENVYTEDGKLDIWSKSMYQVFQ [N19M]	1.94
YNENVYTEDGKLDIWSKSLYQVFQ [N19L]	1.58
YNENVYTEDGKLDIWSKSKYQVFQ [N19K]	1.96
YNENVYTEDGKLDIWSKSCYQVFQ [N19C]	1.59
YNENVYTEDGKLDIWSKSPYQVFQ [N19P]	1.88
YNENVYTEDGKLDIWSKSIYQVFQ [N19I]	1.6
YNENVYTEDGKLDIWSKSAYQVFQ [N19A]	2.52
YNENVYTECGKLDIWSKSNYQVFQ [D9C]	1.64
YNENVYTELGKLDIWSKSNYQVFQ [D9L]	1.77
YNENVYTEWGKLDIWSKSNYQVFQ [D9W]	2.01
YNENVYTENGKLDIWSKSNYQVFQ [D9N]	1.76
YNENVYTEQGKLDIWSKSNYQVFQ [D9Q]	1.55
YNENVYTEHGKLDIWSKSNYQVFQ [D9H]	1.97
YNENVYTETGKLDIWSKSNYQVFQ [D9T]	1.8
YNENVYTEEGKLDIWSKSNYQVFQ [D9E]	2.37
YNENVYTEGGKLDIWSKSNYQVFQ [D9G]	1.63
YNENVYTEDDKLDIWSKSNYQVFQ [G10D]	2.96
YNENVYTEDSKLDIWSKSNYQVFQ [G10S]	2.23
YNENVYTEDNKLDIWSKSNYQVFQ [G10N]	2.54
YNENVYTEDEKLDIWSKSNYQVFQ [G10E]	2.65
YNENVYTEDGKLDIWSKSNIQVFQ [Y20I]	2.37
YNENVYTEDGKLDIWSKSNSQVFQ [Y20S]	2.72

Variant	protein stability index
YNENVYTEDGKLDIWSKSNCQVFQ [Y20C]	2.49
YNENVYTEDGKLDIWSKSNLQVFQ [Y20L]	2.35
YNENVYTEDGKLDIWSKSNFQVFQ [Y20F]	2.25
YNENVYTEDGKLDIWSKSNVQVFQ [Y20V]	2.52
YNENVYTEDGKLDIWSKSNYQVFI [Q24I]	1.6
YNENVYTEDGKLDIWSKSNYQVFN [Q24N]	2.46
YNENVYTEDGKLDIWSKSNYQVFD [Q24D]	2.75
YNENVYTEDGKLDIWSKSNYQVFL [Q24L]	1.96
YNENVYTEDGKLDIWSKSNYQVFW [Q24W]	2.21
YNENVYTEDGKLDIWSKSNYQVFE [Q24E]	2.44
YNENVYTEDGKLDIWSKSNYQVFM [Q24M]	1.62
YNENVYTEDGKLDIWSKSNYQVFA [Q24A]	1.94
YNENVYTEDGKLQIWSKSNYQVFQ [D13Q]	2.05
YNENVYTEDGKLSIWSKSNYQVFQ [D13S]	1.92
YNENVYTEDGKLPIWSKSNYQVFQ [D13P]	2.81
YNENVYTEDGKLTIWSKSNYQVFQ [D13T]	1.63
YNENVYTEDGKLIIWSKSNYQVFQ [D13I]	2.06
YNENVYTEDGKLWIWSKSNYQVFQ [D13W]	2.46
